Experimental data from patent US20250243261A1.

Experiments:
[1] = molecular target: SARS-CoV-2 Wuhan Spike on pseudotyped lentivirus (SARS-CoV-2 Wuhan-Hu-1) (UniProt P0DTC2); test: cell-based or functional assay
[2] = molecular target: HA H4 Hubei, A/swine/Hubei/06/2009(H4N1) (Influenza A virus); test: BLI, Fab
[3] = molecular target: HA H7 HK17, A/Hong Kong/125/2017(H7N9) (Influenza A virus); test: BLI, Fab

Chain of LY-1404 WT IgG (antibody) (VH): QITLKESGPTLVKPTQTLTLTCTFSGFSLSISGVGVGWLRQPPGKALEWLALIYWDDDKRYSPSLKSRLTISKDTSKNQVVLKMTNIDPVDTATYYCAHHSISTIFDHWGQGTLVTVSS
Chain of LY-1404 WT IgG (antibody) (VL): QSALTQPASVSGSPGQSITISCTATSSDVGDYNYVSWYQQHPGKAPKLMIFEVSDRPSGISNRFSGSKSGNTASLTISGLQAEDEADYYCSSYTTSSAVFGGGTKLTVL

| Substance | Wuhan pseudotyped lentivirus IC50 [1] [µg/mL] | Kd [2] [nM] | Kd [3] [nM] |
| --- | --- | --- | --- |
| LY-1404 WT IgG (antibody) | 3.1 | – | – |
| MEDI8852 WT Fab | – | 0.56 | 0.2 |
